Experimental data: the nanobody polyreactivity screen of Harvey et al. (2022)

Experiment: yeast display, Sf9 membrane polyspecificity reagent, FACS + sequencing; frameworks hold sequencing errors
How it was run: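 Polyreactivity labels are assigned by the sorting gate from which each nanobody was recovered. The gates were low and high (top ~1%), set on anti-HA fluorescence for expression and streptavidin fluorescence for reagent binding. Before sorting, galactose-induced (36–48 hours) yeast display cells were stained for 1 hour at 4 °C with 10% biotinylated, detergent-solubilized Sf9 membrane reagent.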

Question: For “QVQLVESGGGLVQAGGSLRLICAASGIIFDVYAMGWYRQAPGKERELVAAISYGGGTTYYADSVKGRFTISRDNAKNTVYLQMNSLKPEDTAVYYCAADSYRSIGDDYWGQGTQVTVSS”, which “polyreactivity (PSR sort gate)” value is on record?
Answer: The value was “high polyreactivity”.

Question: Which “polyreactivity (PSR sort gate)” value does the source give for “QVQLVESGGGLVQAGGSLRLICAASGIIFSEYAMGWYRQAPGKERELVAVITSGGSTYYADSVKGRFTISRDNAKNTVYLQMNSLKPEDTAVYYCAARGYRYPMYWGQGTQVTVSS” here?
Answer: Its value is “high polyreactivity”.

Question: With “QVQLVESGGGLVQAGGSLRLICAASGIIFVRYVMGWYRQAPGKEMELVAAINWSGGSTYYADSVKGRFTISRDNAKYTVYLQMNSLKPEDTAVYFCCAGSARDDDYWGQGTQVTVSS” as the sequence, how does the “polyreactivity (PSR sort gate)” value read?
Answer: Its value is “high polyreactivity”.

Question: With “QVQLVESGGGLVQAGGSLRLICAASGITFRLNVMGWDRQAPGKERELVARISRAGSTKYADSVKGRFTISRDNAKNTVYLQMNCLKPEDTAVYYCNRYYRRATKVGYWGQGTQVTVSS” as the sequence, how does the “polyreactivity (PSR sort gate)” value read?
Answer: Its value is “high polyreactivity”.

Question: For “QVQLVESGGGLVQAGGSLRLICAASGITFYDYAMGWYRQAPGKERELVAVITRRGGSTYYADSVKGRFTISRDNAKNTVYLQMNSLKPEDTAVYYCAADWRGWSFVRGDDYWGQGTQVTVSS”, which “polyreactivity (PSR sort gate)” value is on record?
Answer: The value was “high polyreactivity”.

Question: With “QVQLVESGGGLVQAGGSLRLICAASGLIFAVYAMGWYRQAPGKERELVAGISASAASTYYADSVKGRFTISRDNAKNTVFLQMNSLNPEDTAVYYCAADFYWFWTYGTLWYGYEYWGLGTQVTVSS” as the sequence, how does the “polyreactivity (PSR sort gate)” value read?
Answer: The value was “high polyreactivity”.

Question: With “QVQLVESGGGLVQAGGSLRLICAASGLIFDYYRMGWYRQATGKQRELVAAITSSGSRTYYADSVKGRFTISRDNAKKTVYLQMNSLNPEDTAVYFCARGGGRRKGLVDYWGQGTQVTVSS” as the sequence, how does the “polyreactivity (PSR sort gate)” value read?
Answer: Its value is “low polyreactivity”.

Question: With “QVQLVESGGGLVQAGGSLRLICAASGLIFYRYAMGWYRPEPGKERELVAVISRGGSTFYADSVKGRFTISRDNAKNTVYLQMNSLTPEDTAVYFCAAAQTSQAYRYWYYYWGQGTQVTVSW” as the sequence, how does the “polyreactivity (PSR sort gate)” value read?
Answer: Its value is “high polyreactivity”.

Question: With “QVQLVESGGGLVQAGGSLRLICAASGLTFGWYAMGWYRQAPGKERELVAAITYDGDSTYYADSVKGRFTISRDNAKNTVYLQMNSLKPEDTAVYYCAAEYGYGEMDSWGQGTQVTVSS” as the sequence, how does the “polyreactivity (PSR sort gate)” value read?
Answer: Its value is “high polyreactivity”.

Question: Which “polyreactivity (PSR sort gate)” value does the source give for “QVQLVESGGGLVQAGGSLRLICAASGLTFTPNAMGWYRQAPWKEREFVAAITWRGGRTYYADSVKGRFTISRDNAKNTVYLQMNSLKPEDTAVYYCAVTYRPTDQLDYWGQGTQVTVSS” here?
Answer: The value was “high polyreactivity”.

Question: With “QVQLVESGGGLVQAGGSLRLICAASGLTFVTYAMGWYRQAPGKERELVAAITWSVGGTTYYADSVKGRFTISRDNAKNTVYLQMNSLKPEDTAVYYCAAESYSYYYDYYYWGQGTQVTVSS” as the sequence, how does the “polyreactivity (PSR sort gate)” value read?
Answer: The value was “high polyreactivity”.

Question: For “QVQLVESGGGLVQAGGSLRLICAASGNIFAVYAMGWYRQAPGKERELVAAITTGTNTYADSVKGRFTISRDNAKNNVYLQMNSLKPEDTAVYFCAARYYRPLDYWGQGTQVTVSS”, which “polyreactivity (PSR sort gate)” value is on record?
Answer: The value was “low polyreactivity”.

Question: With “QVQLVESGGGLVQAGGSLRLICAASGNIFYIYAMVWDRQAPWKERELVAAISWSCCSTYYADSVKGRFTISRDNAKNTVYCQMNSLKPEDTSVYYCDVEFTPKRWVSYRTMYSWGQGTQVTVSS” as the sequence, how does the “polyreactivity (PSR sort gate)” value read?
Answer: The value was “high polyreactivity”.

Question: For “QVQLVESGGGLVQAGGSLRLICAASGNTFYGYAMGWYRQAPGKERELVASITLSGDSTYYADSVKGRFTISRDNAKNTVYVQMNSLKPEDTAVYYCAGVYTYPLGYYHDTYDYWGQGTQVTVSS”, which “polyreactivity (PSR sort gate)” value is on record?
Answer: The value was “low polyreactivity”.

Question: With “QVQLVESGGGLVQAGGSLRLICAASGRIFGPYAMGWYRQAPGKERELVASISYSGGSTYYADSVKGRFTISRDNAKNTVYLQMNSLKPDDTAVYYCAKGGYWRGYNYWGQGTQVTVSS” as the sequence, how does the “polyreactivity (PSR sort gate)” value read?
Answer: Its value is “low polyreactivity”.

Question: Which “polyreactivity (PSR sort gate)” value does the source give for “QVQLVESGGGLVQAGGSLRLICAASGRIFHYYMGWYRQAPGKEMELVAVISSGDGTYYADSVKGRFTISRDNAKYTFYLQMNSLKPEDTAVYYWAADAPREYDDHYKYDDDYCGQGTQVTVSS” here?
Answer: Its value is “low polyreactivity”.

Question: For “QVQLVESGGGLVQAGGSLRLICAASGRIFIYYAMGWYRQAPGKERELVAAITGRDGSTYYADSVKGRFTISRDNAKNTVDLQKISLKPEDTAVYYCAASRFYFRRTFGGYPKLASYDYWGQGTQVTVSS”, which “polyreactivity (PSR sort gate)” value is on record?
Answer: The value was “low polyreactivity”.

Question: With “QVQLVESGGGLVQAGGSLRLICAASGRIFPGYTMGWYRQAPGKEREFFAAISYSGGSTYADSVKGRFTISRDNAKNTVYLQMNSLKPEDTAVYYCAVVLQHWLDMYYWGQVTQVTVSS” as the sequence, how does the “polyreactivity (PSR sort gate)” value read?
Answer: The value was “low polyreactivity”.

Question: For “QVQLVESGGGLVQAGGSLRLICAASGRIFQIYAMGWYRQAPGKEREVVAAISSGGTTYYADSVKGRFTISRDNAKNTVYLQMNSLKPEDTAVYYCAAVAWDLYSDGQEYNYWGQGPQVTVSS”, which “polyreactivity (PSR sort gate)” value is on record?
Answer: Its value is “high polyreactivity”.

Question: With “QVQLVESGGGLVQAGGSLRLICAASGRIFRGYVMGWYRQAPGKERELVASIDRSGASTYYADSVKGRFTISRDNAKNTVYLQMNSLKPEDTAVYYCNALVYLRTSRYYYWGQGTQVTVSS” as the sequence, how does the “polyreactivity (PSR sort gate)” value read?
Answer: Its value is “high polyreactivity”.

Question: With “QVQLVESGGGLVQAGGSLRLICAASGRIFRRNVMGWYRQAPGKDRELVAAIRGTGSTTYADSVKGRFTISRDNAKNTVYLQMNSLKPEDTAVYYCNAYKGQTGGGGRYGYWGQGTQVTVSS” as the sequence, how does the “polyreactivity (PSR sort gate)” value read?
Answer: Its value is “high polyreactivity”.

Question: Which “polyreactivity (PSR sort gate)” value does the source give for “QVQLVESGGGLVQAGGSLRLICAASGRIFRVNAMGWYIQAPGKERELVAGITWSGGSTYYADSVKGRFTISRDNAKNTVYLQMNSLQPEDTAVYSCNAEYSPSYLFYWYEYIYWGQGSQVTVSS” here?
Answer: The value was “high polyreactivity”.

Question: Which “polyreactivity (PSR sort gate)” value does the source give for “QVQLVESGGGLVQAGGSLRLICAASGRIFTYNAMGWYRQAPGKERELVARITSGGNTNYADSVKGRFTISRDNAKNTVYLQMNSLKPEDTAVYYCATGLFWFTNRYGSWGQGTQVTVSS” here?
Answer: The value was “low polyreactivity”.

Question: With “QVQLVESGGGLVQAGGSLRLICAASGRIFYHNAMGWYRQAPGKERELDAAITWSGGSTYYADSVKGRFTISRDNAKNTVYLQMNSLKPEDTAVYYCAALWLVNHYYPSQDYDYWGQGSQVTVSS” as the sequence, how does the “polyreactivity (PSR sort gate)” value read?
Answer: The value was “high polyreactivity”.

Question: For “QVQLVESGGGLVQAGGSLRLICAASGRIIPSYSMGWYRQAPAKEREFVAVIRSSVDGTYYADSVKGRFTISRDYAKNTVYLHMNSLNPDDTSVYYFSADSYPFFIRNLYPVLEGEYGHWGQGTQVNVSS”, which “polyreactivity (PSR sort gate)” value is on record?
Answer: The value was “low polyreactivity”.

Question: Which “polyreactivity (PSR sort gate)” value does the source give for “QVQLVESGGGLVQAGGSLRLICAASGRISGRYAMGWYRQAPGKERELVAAITSRGGRTYYADSVKGRFTISRDNAKNTVYLQMNSLKPEDTAVYYCIAVGGYWFDYWGQGTQVTVSS” here?
Answer: Its value is “high polyreactivity”.

Question: For “QVQLVESGGGLVQAGGSLRLICAASGRIYRYYAMGWYRQAPGKERELVAAITSDGRTYYADSVKGRFTISRDNAKNTVYLQMNSLKPEDTAVYYCAADHHSYRYGGYYYWGQGTQVTVSS”, which “polyreactivity (PSR sort gate)” value is on record?
Answer: Its value is “low polyreactivity”.

Question: For “QVQLVESGGGLVQAGGSLRLICAASGRTFDGYVMGLYRQAPGKERELVASIRGTGSTYYADSVKGRFTISRENAKNTVYLQMNSLKPEDTAVYYCAARPGYAYDWGQGTQVTVSS”, which “polyreactivity (PSR sort gate)” value is on record?
Answer: The value was “high polyreactivity”.

Question: Which “polyreactivity (PSR sort gate)” value does the source give for “QVQLVESGGGLVQAGGSLRLICAASGRTFDLYAMGWCRQAPGKEREFVAAITKGGGSTYYADSVKGRFTISRDNAKNTVYLQMNSLKPEDTAVYYCAARKYKRIYRISSGIGYYWGQGTQVTVSS” here?
Answer: The value was “high polyreactivity”.

Question: Which “polyreactivity (PSR sort gate)” value does the source give for “QVQLVESGGGLVQAGGSLRLICAASGRTFNWNAMGWYRQAPGKERELVAAITSGGNTYYADSVKGRFTISRDNAKNTVYLQMNSLKPEDTAVYYCAKVTYEGGYRYNYWGQGTQVTVSS” here?
Answer: The value was “high polyreactivity”.

Question: Which “polyreactivity (PSR sort gate)” value does the source give for “QVQLVESGGGLVQAGGSLRLICAASGRTFQYYAMGWYRQAPGKERELVAAITSGGSTYYADSVKGRFTISRDNAKNTVYLQMNSLKPEDTAVYYCAATFYYSGHDDYWGQGTQVTVSS” here?
Answer: The value was “low polyreactivity”.

Question: For “QVQLVESGGGLVQAGGSLRLICAASGRTFRSYAMGWYRQAPGKERELVAAISWSGGSTYYADSVKGRFTISRDNAKNTVYLQMNSLKPVDTAVYYCAAEVYYTYVYILDYWGQGTQVTVSS”, which “polyreactivity (PSR sort gate)” value is on record?
Answer: Its value is “high polyreactivity”.

Question: For “QVQLVESGGGLVQAGGSLRLICAASGRTFSVNDMGWYRQAPGKERELVAAISFSGGSTYYADSVKGRFTISRDNAKNTVYLQMNSLKPEDTAVYYCAAEAYPSWFYVITGFGIYDYWGQGTQVTVSS”, which “polyreactivity (PSR sort gate)” value is on record?
Answer: Its value is “high polyreactivity”.

Question: With “QVQLVESGGGLVQAGGSLRLICAASGRTFSYYAMGWYRQAPGKERELVATIRFSGGGTYYADSVKGRFTISRDNAKNTVYLQMNSLKPEDTAVYYCNADSIDPFLYDYWGQGTQVTVSS” as the sequence, how does the “polyreactivity (PSR sort gate)” value read?
Answer: The value was “low polyreactivity”.

Question: With “QVQLVESGGGLVQAGGSLRLICAASGRTFVPYAMGWYRQAPGKERELVAAINSGGSTYYADSVKGRFTSSRDNAKNTVYLQMNSLKPADTAVYDCAAEYWNSRFSYAYGYWGQGTQVTVSS” as the sequence, how does the “polyreactivity (PSR sort gate)” value read?
Answer: The value was “high polyreactivity”.

Question: With “QVQLVESGGGLVQAGGSLRLICAASGRTFVYNTMGWYRQAPGKERELVAAITDRGTSTYYADSVKGRFTISRDNAKNPVYLLLNSLNPEDTAVYYWAKDWLVTEFDYWGQGTQVTVSS” as the sequence, how does the “polyreactivity (PSR sort gate)” value read?
Answer: The value was “low polyreactivity”.

Question: Which “polyreactivity (PSR sort gate)” value does the source give for “QVQLVESGGGLVQAGGSLRLICAASGRTFWSYARGWSRQAPGKERQLVAAIRTSDGITYYADSVKGRFTISRDTAKNTVYLQMNSLKPEDTAVYYCAAENWYKYDYWGQGTQVTVSS” here?
Answer: The value was “low polyreactivity”.

Question: Which “polyreactivity (PSR sort gate)” value does the source give for “QVQLVESGGGLVQAGGSLRLICAASGRTFYVYAMGWYRQAPGKEREFVARITSNGGSTTYADSVKGRFTISRDNAKNTVYLQMNSLKPDDTAVYYCNADYDPEDMDYWGQGTQVTVSS” here?
Answer: The value was “low polyreactivity”.

Question: For “QVQLVESGGGLVQAGGSLRLICAASGRTFYYYAIGWYRQAPGKERELVASISYSAGRTYADSVKGRFTSSRDNAKNTVYLQMNSLKPEDTAVYYCNSDVTTVPYTNDYWGQGTQVTVSS”, which “polyreactivity (PSR sort gate)” value is on record?
Answer: Its value is “high polyreactivity”.

Question: Which “polyreactivity (PSR sort gate)” value does the source give for “QVQLVESGGGLVQAGGSLRLICAASGRTIWSNAMGRYRHAPGKEWEFVAGISQDGTSRYYADSVKGRFTISRDNAKNTVYLQMNSLKPEDTAVYYCAARSSFRRRSGPTPYGFDYWGQGTQVTVSS” here?
Answer: The value was “high polyreactivity”.

Question: For “QVQLVESGGGLVQAGGSLRLICAASGRTLWSNAMGWYRQAPGKEMELFATISRGGGSTSYADSVKGRFTISRYNAKKTVYLQLYSLKPEDTSVYYCNNYPYIQRTWWYDYWGQGTQVTVSS”, which “polyreactivity (PSR sort gate)” value is on record?
Answer: Its value is “high polyreactivity”.
